Data taken from article doi:10.1101/2021.01.27.428455 (bioRxiv, 2021).
Where “and” joins values, the source holds several entries; their conditions need not be identical. Equal values may be shown once. Read-outs that look alike come from different tables or passages of the source.

B1: Lactococcus lactis Csm2 with N-terminal His6-tag (natural protein)
chain: TELKIGNEKVNSTNFGDFAEKAIRGINHKPFVNSKGGEQKITTSKIRGILELVNKVYNRVINTNDVELSENILADIAYIKVKIAYESGREPVVKDFIQRTAFTAAITDVMNQRTRESFLLFARYVESLIAYFKFYGGKD
B2: Lactococcus lactis Csm3 Asp30Ala (natural protein)
chain: MKLVIEGTIVLKTGMHIGGSSDFSAIGAVASPVVRDTLTRLPLIPGSSLKGKMRYLLAKELNNGILLNEPNNDQDEILRLFGSSEKDKIRRARLKFNDIKLSNLAELETFNVSSTEVKFENTINRKTAVANPRQIERVIAGSKFDFEIFYNLDDIKEVEKDFENIKQGFDLLEFDYLGGHGTRGSGRIAFENLSVITAVGNFEKINTLNEILGA

Assays:
Assay in all cases: cryo-EM structure
[1] = target: B2
[2] = target: the molecule itself
[3] = target: the molecule itself; remark: listed apart in the source

binding result [1]	Binder	stoichiometry N [2]	stoichiometry N [3]
binds	B1	3 and 2	
	B2	3	4
